Molecular target: WT His-tagged PCNA (recombinant Xenopus PCNA) (UniProt P18248)
Sequence (P18248 whole entry): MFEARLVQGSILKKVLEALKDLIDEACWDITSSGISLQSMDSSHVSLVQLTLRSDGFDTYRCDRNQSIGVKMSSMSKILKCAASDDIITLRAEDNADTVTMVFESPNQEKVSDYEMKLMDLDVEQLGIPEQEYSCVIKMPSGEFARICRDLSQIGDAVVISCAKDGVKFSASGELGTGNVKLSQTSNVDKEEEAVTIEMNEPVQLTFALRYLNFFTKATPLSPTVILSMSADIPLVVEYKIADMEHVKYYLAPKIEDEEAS

Row | Substance | exonuclease activity on FAM-labeled gapped dsDNA, purified proteins in vitro
1 | C470A GST-APE2 (mutant of full GST-APE2) | the gapped dsDNA structure was still resected by C470A APE2 or F486A-Y487A APE2 to some extent similar to WT APE2 with the presence of WT PCNA
2 | F486A-Y487A GST-APE2 (mutant of full GST-APE2) | the gapped dsDNA structure was still resected by C470A APE2 or F486A-Y487A APE2 to some extent similar to WT APE2 with the presence of WT PCNA

— patent US20200017862
